# Experimental data from PMC7966800, “Adiponectin-expressing Treg facilitate T lymphocyte development in thymic nurse cell complexes” (Communications Biology, 2021).
# Where “and” joins values, the source holds several entries; their conditions need not be identical. Equal values may be shown once.
# Target: the molecule itself
# Experiment: non-reducing SDS-PAGE with Western blotting; thymus lysate of WT mice; non-reducing SDS-PAGE, polyclonal antibody to murine adiponectin
protein,measurement,value
"Adiponectin (natural protein, mouse (endogenous in thymus), UniProt Q60994 18-247, looked up, adiponectin, mouse, endogenous protein of thymus and thymic nurse cell (TNC) complexes; found as trimer, hexamer and HMW oligomers; Endogenous secreted glycoprotein; detected with a polyclonal antibody against murine adiponectin; also called Adn; ADIPOQ; source: endogenous, thymus tissue and TNC complexes of wild-type mice, in lysate) EDDVTTTEELAPALVPPPKGTCAGWMAGIPGHPGHNGTPGRDGRDGTPGEKGEKGDAGLLGPKGETGDVGMTGAEGPRGFPGTPGRKGEPGEAAYVYRSAFSVGLETRVTVPNVPIRFTKIFYNQQNHYDGSTGKFYCNIPGLYYFSYHITVYMKDVKVSLFKKDKAVLFTYDQYQEKNVDQASGSVLLHLEVGDQVWLQVYGDGDHNGLYADNVNDSTFTGFLLYHDTN",stoichiometry N,3 and 6
